Data as given in publication PMC9273934 (2022).

B1: Fc-E1E2 from J6 (GT2a), recombinant full-length E1E2 heterodimer (complex)
chain 1: AEVKNISTGYMVTNDCTNDSITWQLQAAVLHVPGCVPCEKVGNASQCWIPVSPNVAVQRPGALTQGLRTHIDMVVMSATLCSALYVGDLCGGVMLAAQMFIVSPQHHWFVQDCNCSIYPGTITGHRMAWDMMMNWSPTATMILAYAMRVPEVIIDIISGAHWGVMFGLAYFSMQGAWAKVVVILLLAAGVDA
chain 2: RTHTVGGSAAQTTGRLTSLFDMGPRQKIQLVNTNGSWHINRTALNCNDSLHTGFIASLFYTHSFNSSGCPERMSACRSIEAFRVGWGALQYEDNVTNPEDMRPYCWHYPPRQCGVVSAKTVCGPVYCFTPSPVVVGTTDRLGAPTYTWGENETDVFLLNSTRPPLGSWFGCTWMNSSGYTKTCGAPPCRTRADFNASTDLLCPTDCFRKHPDTTYLKCGSGPWLTPRCLIDYPYRLWHYPCTVNYTIFKIRMYVGGVEHRLTAACNFTRGDRCNLEDRDRSQLSPLLHSTTEWAILPCSYSDLPALSTGLLHLHQNIVDVQFMYGLSPALTKYIVRWEWVILLFLLLADARVCACLWMLILLGQAEA
B2: Fc-E1E2 from HK6a (GT6a), recombinant full-length E1E2 heterodimer (complex)
chain 1: LTYGNSSGLYHLTNDCPNSSIVLEADAMILHLPGCLPCVRVNNNQSICWHAVSPTLAIPNASTPATGFRRHVDLLAGAAVVCSSLYIGDLCGSLFLAGQLFTFQPRRHWTVQDCNCSIYTGHVTGHRMAWDMMMNWSPTTTLVLSSILRVPEICASVISGGHWGILLAVAYFGMAGNWLKVLAVLFLFAGVE
chain 2: ATTTIGHQVGRTTGGLASLFSIGPRQNLQLINTTGSWHINRTALNCNDSLQTGFITSLFYAKNVNSSGCPERMAACKPLADFRQGWGQITYKVNISGPSDDRPYCWHYAPRPCDVVSARTVCGPVYCFTPSPVVVGTTDKLGIPTYNWGENETDVFMLESLRPPTGGWFGCTWMNSTGFTKTCGAPPCQIVPGDYNSSANELLCPTDCFRKHPEATYQRCGSGPWITPRCLVDYPYRLWHYPCTVNFTLHKVRMFVGGIEHRFDAACNWTRGERCDLHDRDRIEMSPLLFSTTQLAILPCSFSTMPALSTGLIHLHQNIVDVQYLYGVSSSVTSWVVKWEYIVLVFLVLADARICTCLWLMLLITNVEA
B3: Fc-E1E2 from S52 (GT3a), recombinant full-length E1E2 heterodimer (complex)
chain 1: LEWRNTSGLYVLTNDCSNSSIVYEADDVILHTPGCVPCVQDDNTSTCWTPVTPTVAVRYVGATTASIRSHVDLLVGAATLCSALYVGDMCGAVFLVGQAFTFRPRRHQTVQTCNCSLYPGHVSGHRMAWDMMMNWSPAVGMVVAHILRLPQTLFDILAGAHWGILAGLAYYSMQGNWAKVAIVMIMFSGVDA
chain 2: ETYVTGGSVAHSARGLTSLFSMGAKQKLQLVNTNGSWHINSTALNCNESINTGFIAGLFYYHKFNSTGCPQRLSSCKPIISFRQGWGPLTDANITGPSDDRPYCWHYAPRPCSVVPASSVCGPVYCFTPSPVVVGTTDIKGKPTYNWGENETDVFLLESLRPPSGRWFGCAWMNSTGFLKTCGAPPCNIYGGEGDPENETDLFCPTDCFRKHPEATYSRCGAGPWLTPRCMVDYPYRLWHYPCTVNFTLFKVRMFVGGFEHRFTAACNWTRGERCNIEDRDRSEQHPLLHSTTELAILPCSFTPMPALSTGLIHLHQNIVDVQYLYGVGSDMVGWALKWEFVILVFLLLADARVCVALWLMLMVSQAEA
B4: Fc-E1E2 from Con1 (GT1b), recombinant full-length E1E2 heterodimer (complex)
chain 1: YEVRNVSGVYHVTNDCSNASIVYEAADMIMHTPGCVPCVRENNSSRCWVALTPTLAARNASVPTTTIRRHVDLLVGAAALCSAMYVGDLCGSVFLVAQLFTFSPRRHETVQDCNCSIYPGHVTGHRMAWDMMMNWSPTAALVVSQLLRIPQAVVDMVAGAHWGVLAGLAYYSMVGNWAKVLIVMLLFAGVDG
chain 2: GTYVTGGTMAKNTLGITSLFSPGSSQKIQLVNTNGSWHINRTALNCNDSLNTGFLAALFYVHKFNSSGCPERMASCSPIDAFAQGWGPITYNESHSSDQRPYCWHYAPRPCGIVPAAQVCGPVYCFTPSPVVVGTTDRFGVPTYSWGENETDVLLLNNTRPPQGNWFGCTWMNSTGFTKTCGGPPCNIGGIGNKTLTCPTDCFRKHPEATYTKCGSGPWLTPRCLVHYPYRLWHYPCTVNFTIFKVRMYVGGVEHRLEAACNWTRGERCNLEDRDRSELSPLLLSTTEWQVLPCSFTTLPALSTGLIHLHQNVVDVQYLYGIGSAVVSFAIKWEYVLLLFLLLADARVCACLWMMLLIAQAEA

Target: T1, recombinant CD81 large extracellular loop
T1 chain: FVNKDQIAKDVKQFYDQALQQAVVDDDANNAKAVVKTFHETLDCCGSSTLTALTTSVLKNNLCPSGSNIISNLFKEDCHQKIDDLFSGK
Test: SPR

| Molecule | koff |
| --- | --- |
| B1 | 0.00104 s⁻¹ |
| B2 | 0.0022 s⁻¹ |
| B3 | 0.000465 s⁻¹ |
| B4 | 0.00277 s⁻¹ |

target: recombinant CD81 large extracellular loop; test: SPR; BiaCore T200, CM5 chip, room temperature; CD81-LEL immobilised at about 150 RU; Fc-E1E2 flowed at 0-250 ug/ml; HBS-EP pH 7.4, 150 mM NaCl; 1:1 steady state binding model

| Molecule | Kd |
| --- | --- |
| Fc-E1E2 from Con1 (GT1b), recombinant full-length E1E2 heterodimer (from UniProt Q9WMX2 192-383; Q9WMX2 384-746) (complex) | 0.327 µM |
| Fc-E1E2 from H77 (GT1a), recombinant full-length E1E2 heterodimer (complex) | 0.382 µM |
| Fc-E1E2 from HK6a (GT6a), recombinant full-length E1E2 heterodimer (complex) | 0.775 µM |
| Fc-E1E2 from J6 (GT2a), recombinant full-length E1E2 heterodimer (complex) | 0.243 µM |
| Fc-E1E2 from S52 (GT3a), recombinant full-length E1E2 heterodimer (complex) | 0.071 µM |
